Reference: publication doi:10.1101/2024.11.16.623948
pKd: −log10 of the molar value.

Legend:
[1] = biological target: FLAG-Ago1 (Drosophila melanogaster) (UniProt A1Z9J5); experiment: filter binding; conditions: guide 5' phosphate; RBNS: 20 mM HEPES-KOH pH 7.9, 100 mM KOAc, 3.5 mM Mg(OAc) (magnesium acetate), 0.05% CHAPS, 2 mM DTT, 8% glycerol, BSA, tRNA, 25 C 2 h; filter binding: 25 mM …
PUM2 (human) = biological target: T1, PUM2 (human) (UniProt Q8TB72); experiment: RBNS; conditions: RBNS: 20 mM HEPES-KOH pH 7.9, 100 mM KOAc, 3.5 mM Mg(OAc) (magnesium acetate), 0.05% CHAPS, 2 mM DTT, 8% glycerol, BSA, tRNA, 25 C 2 h; filter binding: 25 mM …
T1 sequence: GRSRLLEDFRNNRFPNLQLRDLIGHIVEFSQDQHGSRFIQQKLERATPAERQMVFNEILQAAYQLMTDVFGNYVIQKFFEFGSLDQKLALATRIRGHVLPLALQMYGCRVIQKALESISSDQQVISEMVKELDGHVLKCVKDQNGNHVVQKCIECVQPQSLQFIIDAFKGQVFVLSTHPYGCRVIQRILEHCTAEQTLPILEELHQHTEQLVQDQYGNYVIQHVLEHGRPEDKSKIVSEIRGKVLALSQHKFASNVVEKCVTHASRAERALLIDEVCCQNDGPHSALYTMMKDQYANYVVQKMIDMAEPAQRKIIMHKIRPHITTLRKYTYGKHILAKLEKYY

Chain of FLAG-Ago1 (Drosophila melanogaster) (A1Z9J5 entry or part of it): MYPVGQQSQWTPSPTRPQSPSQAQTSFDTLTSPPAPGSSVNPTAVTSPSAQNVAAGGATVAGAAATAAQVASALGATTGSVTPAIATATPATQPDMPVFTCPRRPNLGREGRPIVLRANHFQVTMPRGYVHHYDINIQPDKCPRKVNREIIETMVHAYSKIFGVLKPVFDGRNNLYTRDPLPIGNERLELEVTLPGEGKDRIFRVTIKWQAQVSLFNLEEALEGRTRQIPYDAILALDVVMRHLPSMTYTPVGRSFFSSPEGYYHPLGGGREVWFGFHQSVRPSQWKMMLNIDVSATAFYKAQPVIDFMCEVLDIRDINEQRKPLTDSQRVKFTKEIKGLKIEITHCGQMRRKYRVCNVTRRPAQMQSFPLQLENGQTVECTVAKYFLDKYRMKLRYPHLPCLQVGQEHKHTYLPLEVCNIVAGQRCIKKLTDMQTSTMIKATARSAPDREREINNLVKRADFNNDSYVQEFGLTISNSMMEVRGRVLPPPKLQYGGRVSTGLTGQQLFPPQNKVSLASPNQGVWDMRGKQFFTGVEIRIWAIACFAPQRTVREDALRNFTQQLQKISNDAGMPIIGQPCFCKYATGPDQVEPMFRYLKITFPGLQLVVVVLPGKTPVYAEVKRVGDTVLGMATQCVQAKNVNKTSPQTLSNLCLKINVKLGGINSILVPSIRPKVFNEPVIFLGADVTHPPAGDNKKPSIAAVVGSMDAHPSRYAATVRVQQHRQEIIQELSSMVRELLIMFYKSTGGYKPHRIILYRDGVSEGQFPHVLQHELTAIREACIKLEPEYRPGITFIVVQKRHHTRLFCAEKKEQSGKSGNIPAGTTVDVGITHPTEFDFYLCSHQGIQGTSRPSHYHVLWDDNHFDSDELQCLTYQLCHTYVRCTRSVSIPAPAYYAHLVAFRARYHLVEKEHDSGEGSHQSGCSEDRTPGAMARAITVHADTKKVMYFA

Sequence | pKd [1] | pKd (PUM2 (human))
UGAGGUAGUAGGUUGUAUAGU / AAAAAAAAAAAAUCUACCUCU [let-7 / seed-matching target] | 11.30 | 
UGAGGUAGUAGGUUGUAUAGU / ACUAUACAACCUACUACCUCA [let-7 / fully complementary target] | 11.70 | 
UGUAUAUA [PUM consensus site] |  | 9.49
